Reference: article PMC7688135, “Two cis-regulatory SNPs upstream of ABCG2 synergistically cause the blue eggshell phenotype in the duck”

T1: CTCF (Homo sapiens, UniProt P49711 1-727)
T1 sequence: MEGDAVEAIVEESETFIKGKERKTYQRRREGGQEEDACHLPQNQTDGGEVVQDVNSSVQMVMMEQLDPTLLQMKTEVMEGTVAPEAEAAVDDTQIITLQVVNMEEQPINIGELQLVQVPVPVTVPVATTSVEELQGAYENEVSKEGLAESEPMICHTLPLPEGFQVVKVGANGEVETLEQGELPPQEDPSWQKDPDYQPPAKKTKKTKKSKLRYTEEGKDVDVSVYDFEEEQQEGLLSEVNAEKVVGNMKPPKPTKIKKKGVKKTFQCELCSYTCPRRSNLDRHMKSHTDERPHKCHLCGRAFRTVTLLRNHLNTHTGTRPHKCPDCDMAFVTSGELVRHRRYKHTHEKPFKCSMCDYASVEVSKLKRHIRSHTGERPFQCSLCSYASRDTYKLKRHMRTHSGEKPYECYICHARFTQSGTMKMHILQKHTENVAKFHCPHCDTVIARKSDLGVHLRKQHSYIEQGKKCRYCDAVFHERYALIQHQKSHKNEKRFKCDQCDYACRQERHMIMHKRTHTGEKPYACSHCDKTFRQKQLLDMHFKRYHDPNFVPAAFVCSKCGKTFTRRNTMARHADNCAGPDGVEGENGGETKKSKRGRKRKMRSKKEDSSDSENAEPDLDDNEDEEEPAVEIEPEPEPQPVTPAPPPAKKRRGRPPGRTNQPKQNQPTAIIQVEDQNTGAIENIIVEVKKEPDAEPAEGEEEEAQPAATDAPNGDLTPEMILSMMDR

B1: White-M5 (G allele) (dsDNA)
DNA 1: ACTTCTGCCACTGGAGGCAGGAGGG
DNA 2: CCCTCCTGCCTCCAGTGGCAGAAGT
B2: Blue-M5 (A allele) (dsDNA)
DNA 1: ACTTCTGCCACTAGAGGCAGGAGGG
DNA 2: CCCTCCTGCCTCTAGTGGCAGAAGT

Columns and labels:
CTCF [1] = molecular target: T1, CTCF; experiment: EMSA supershift; anti-CTCF antibody; Buffer, salt, pH and temperature not given; 40 pmol biotin probe, 200-fold cold competitor, 5% non-denaturing PAGE, LightShift Chemiluminescent EMSA kit; conditions: protein: recombinant; label: 5'-biotin on strand 1; blunt
CTCF [2] = molecular target: T1, CTCF; experiment: EMSA supershift; anti-CTCF antibody; supershift evident; Buffer, salt, pH and temperature not given; 40 pmol biotin probe, 200-fold cold competitor, 5% non-denaturing PAGE, LightShift Chemiluminescent EMSA kit; conditions: protein: recombinant; label: 5'-biotin on strand 1; blunt

| Binder | binding result (CTCF [1]) | binding result (CTCF [2]) |
| --- | --- | --- |
| B1 | no binding |  |
| B2 |  | binds |
